From patent publication US20230189818A1, “RNA-BASED CONTROL OF BOTRYTIS” (priority 2021, published 2023)

How the values were obtained:
[1] = test system: Botrytis cinerea isolate (B05.10); experiment: Detached leaf assay (tomato leaflets, lesion size); assay type: in vivo; settings: five days post inoculation, vs untreated inoculated control
Summary of the method: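 Tomato (Brandywine) detached lateral leaflets were sprayed with treatment in 0.03% Silwet L-77 24 h before inoculation. Two 10 μL drops of 1×10^5 conidia/mL in 7% grape juice were applied per leaflet, which was then incubated at 23 °C, ~75% RH, 12/12 light. Lesion diameter was measured at 5 DPI against the untreated inoculated control, ten replicates.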

[2] = test system: Botrytis cinerea B05.10 isolate; experiment: Greenhouse whole plant assay (tomato 'Lanai', disease severity); assay type: in vivo; settings: final rating day (rating #3)
[3] = 8 g ai/ha, three runs, four-week-old 'Lanai' tomato plant
[4] = 25 g ai/ha, three runs, four-week-old 'Lanai' tomato plant
[5] = 8 g ai/ha, two runs, three-week-old 'Lanai' tomato plant
[6] = 25 g ai/ha, two runs, three-week-old 'Lanai' tomato plant

B1: GS2280: dsRNA trigger targeting B. cinerea Bcmcm4 (XM_024696090.1); trigger SEQ ID NO 21, RNA 33, reverse complement 45 (nucleic acid, listed as Botrytis cinerea)
sense: AAUGUCCUCGUCCGGUUUGUAAAUCUCCAAACUCCAUGCAGAUUGUACACAACAGGUCUGGAUUCAUGGAUAAGCAAGUUAUCAAGCUUCAAGAAACUCCAGAUUCCGUUCCUGCUGGUCAAACACCACAUUCCGUCUCGAUGUGUGCAUAUGAUGAGUUGGUGGAUCUGUGCAAAGCUGGUGACAGAGUUGAGAUUACUGGUAUCUUCAAAGCUAGUCCAGUUCGUGUCAAUCCUCGCCAAAGAACUCUCAAAAGCAUUUAUAAAACGUACAUCGACGUUUUACACAUUCAAAAGGUUGACAAGAAAAGAAUGGGAAUUGAUGCUUCGACCGUUGAGCAAGAAAUAUCCGAUCAGUUGACAGGCAACAUUGAAGAAACUAGAAAGGUUUCUGAAGAGGAGGAAGAAAAAAUCAGAGAAACCGCUGCAAGACCCGAUAUCUACGAACUUCUAUCUCGAUCCCUCGCACCUAGUAUUUUUGAGAUGGACGAUGUUAAGAAGGGUAUCUUGCUUCAAUUAUUUGGUGGAACUAACAAGUCUUUCGAAAAAGGAGGAAGUCCAAAAUACAGAGGAGAUAUCAAUAUUCUAUUGU
antisense: ACAAUAGAAUAUUGAUAUCUCCUCUGUAUUUUGGACUUCCUCCUUUUUCGAAAGACUUGUUAGUUCCACCAAAUAAUUGAAGCAAGAUACCCUUCUUAACAUCGUCCAUCUCAAAAAUACUAGGUGCGAGGGAUCGAGAUAGAAGUUCGUAGAUAUCGGGUCUUGCAGCGGUUUCUCUGAUUUUUUCUUCCUCCUCUUCAGAAACCUUUCUAGUUUCUUCAAUGUUGCCUGUCAACUGAUCGGAUAUUUCUUGCUCAACGGUCGAAGCAUCAAUUCCCAUUCUUUUCUUGUCAACCUUUUGAAUGUGUAAAACGUCGAUGUACGUUUUAUAAAUGCUUUUGAGAGUUCUUUGGCGAGGAUUGACACGAACUGGACUAGCUUUGAAGAUACCAGUAAUCUCAACUCUGUCACCAGCUUUGCACAGAUCCACCAACUCAUCAUAUGCACACAUCGAGACGGAAUGUGGUGUUUGACCAGCAGGAACGGAAUCUGGAGUUUCUUGAAGCUUGAUAACUUGCUUAUCCAUGAAUCCAGACCUGUUGUGUACAAUCUGCAUGGAGUUUGGAGAUUUACAAACCGGACGAGGACAUU
Average % Reduction in Lesion Size ([1]; 30 ppm): 32.13%
Average % Reduction in Lesion Size ([1]; 50 ppm): 24.08%
% control [2, 3]: 0%
% control [2, 4]: 36%

B2: GS2303: dsRNA trigger targeting B. cinerea Bcded1 (XM_001550339.2); trigger SEQ ID NO 24, RNA 36, reverse complement 48 (nucleic acid, listed as Botrytis cinerea)
sense: GGGCUAUAUAAGCUUUCAUCUAGGUUUUCCAAGAAACGCAUUACGAUAGACAUGUUCUCCAAAAAUCUUACUGGUCCUGCUUUCAGCAUUUCCAUGGAUCAUGAAGUCCUCCACUAUGGAAGAUUUGCAAAAUAUUUUCGACAUUGCAUUUUGCUGCAUUUCGCAUUUCUAGAUAGAAAAAAAGUGGGAUUCAUAUUCUCGAUAUUUUCUUCGUUGUCUUUUAUUCACAAGACACAUGGCAAGGGAGGAUACCAUUUGAGAGCUUGAAUUGAAGGCUUUCCUCUUACUUUUUUUAUUUUUCACAUCAUCUACGAGUGGGCGUCUUUUACGAUCAAAUCGAUAUACGACAGUGGCACAAAAUAGAAUAGGCAUUUCUCUUCUUAAAAAAGAUUUAAGGGAAGAGUUGGUGCUUGUUCUCUAUAACGCUGAUGGCAUUCGGAAGUGCUCCUGUCCAUUCAGGCUGAGACUGAGACCCAAAAUGUUGGCAGGUACGGCAGAAAGAAGUCUGCUUCAUAUGAUUGAUGGAGGAAGAAAGAAAUAUGGAAUGCGAUGGAUGAGUAAUUACUUUAAAUGAAUAUGAAAA
antisense: UUUUCAUAUUCAUUUAAAGUAAUUACUCAUCCAUCGCAUUCCAUAUUUCUUUCUUCCUCCAUCAAUCAUAUGAAGCAGACUUCUUUCUGCCGUACCUGCCAACAUUUUGGGUCUCAGUCUCAGCCUGAAUGGACAGGAGCACUUCCGAAUGCCAUCAGCGUUAUAGAGAACAAGCACCAACUCUUCCCUUAAAUCUUUUUUAAGAAGAGAAAUGCCUAUUCUAUUUUGUGCCACUGUCGUAUAUCGAUUUGAUCGUAAAAGACGCCCACUCGUAGAUGAUGUGAAAAAUAAAAAAAGUAAGAGGAAAGCCUUCAAUUCAAGCUCUCAAAUGGUAUCCUCCCUUGCCAUGUGUCUUGUGAAUAAAAGACAACGAAGAAAAUAUCGAGAAUAUGAAUCCCACUUUUUUUCUAUCUAGAAAUGCGAAAUGCAGCAAAAUGCAAUGUCGAAAAUAUUUUGCAAAUCUUCCAUAGUGGAGGACUUCAUGAUCCAUGGAAAUGCUGAAAGCAGGACCAGUAAGAUUUUUGGAGAACAUGUCUAUCGUAAUGCGUUUCUUGGAAAACCUAGAUGAAAGCUUAUAUAGCCC
Average % Reduction in Lesion Size ([1]; 30 ppm): 43.06%
Average % Reduction in Lesion Size ([1]; 50 ppm): 26.55%
% control [2, 3]: 0%
% control [2, 4]: 34%

B3: GS730: dsRNA trigger targeting B. cinerea Bcsec15 (XM_024692064.1); trigger SEQ ID NO 19, RNA 31, reverse complement 43 (nucleic acid, listed as Botrytis cinerea)
sense: UCAACGCAGUCUCCAAAGCUUUGGAUGAAUUCGAUAACCCGGAUGUUAUUCUGCAAACCAAGAAUGUGAUAGCAUUGUUCAUCCAAACAAUGGAGGGUUGGGGAUAUUCAGUUGCCAUAUUAGAUGCUUAUGUGCUUAAGCUUUUCUAUAGAUAUGCUGAUUUGUUAAAACGGAAAUUCAGCACAGAUUUUCAACAGAUUGUGUCUACCGAUGAAUACAUGCCUAUGCCUGUCAAUAGCGAAGAAGACUUUGAUAAAAUCAUUCAAGUCAGUUGGUAUGUUCCGGACAGACCGAAAGAAGAAUACACAUUCCCCGGUGUAUUACCAUUCUCCCAGAUGUACCCAAUGUGCUGUAUAGAUAUCAGAAAUUUCCUGAAUCGAUUCUACUUCAUAAUGGAUGAUCAUUUUCAACAGCCAAACAUUAUUGAUGAGACACUUAAGAAGUCGAUAGAUGAGCUUCUGUCUGAGGAUAUUUGUGA
antisense: UCACAAAUAUCCUCAGACAGAAGCUCAUCUAUCGACUUCUUAAGUGUCUCAUCAAUAAUGUUUGGCUGUUGAAAAUGAUCAUCCAUUAUGAAGUAGAAUCGAUUCAGGAAAUUUCUGAUAUCUAUACAGCACAUUGGGUACAUCUGGGAGAAUGGUAAUACACCGGGGAAUGUGUAUUCUUCUUUCGGUCUGUCCGGAACAUACCAACUGACUUGAAUGAUUUUAUCAAAGUCUUCUUCGCUAUUGACAGGCAUAGGCAUGUAUUCAUCGGUAGACACAAUCUGUUGAAAAUCUGUGCUGAAUUUCCGUUUUAACAAAUCAGCAUAUCUAUAGAAAAGCUUAAGCACAUAAGCAUCUAAUAUGGCAACUGAAUAUCCCCAACCCUCCAUUGUUUGGAUGAACAAUGCUAUCACAUUCUUGGUUUGCAGAAUAACAUCCGGGUUAUCGAAUUCAUCCAAAGCUUUGGAGACUGCGUUGA
Average % Reduction in Lesion Size ([1]; 30 ppm): 16.38%
Average % Reduction in Lesion Size ([1]; 50 ppm): 25.11%
% control [2, 5]: 61%
% control [2, 6]: 58%

B4: GS349: dsRNA trigger targeting B. cinerea CDC42 (XM_001545642.2); trigger SEQ ID NO 14, RNA 26, reverse complement 38 (nucleic acid, listed as Botrytis cinerea)
sense: GUUGUCUUGUCUCGCUCAAGCUUGUCCUGUCUGGUCACUUUUCUUUCUGCCUGAUAAUCCAGACCUCGAAAAUAACCAAAAGAUUGGAAAUCGUUUGCUCAUCUUGCAUGCAUUAUUACUUUCCUGGAUCAAUCUCAUUCAACUCGUUCUCGUGCAUUUCAUUCAACCUCAACCCCUACUUUCAGUCAAUUCAAUUUAAUUCAAUCAUUCAAAUCUUUCAUUUCGCACACUUCACAUUCAACCAUCCUCUCUCAAUCAAAUAUCACCACCUCUCUUAUCGAACGUCAUUUUGCAUACAAUCAAUUCCUACAGACCGAGCGCAACUCGAUACAACCAUCGAAUAACUUCUCACACUUGCUUGUUGAAUUGAUUACUGAAGAAAGUGGAUUUCAAAGACCGAUUUUCCCCCUAGAUAUUCAAGAACGGCUUAUUCUUGUCUCGAGACAAAAC
antisense: GUUUUGUCUCGAGACAAGAAUAAGCCGUUCUUGAAUAUCUAGGGGGAAAAUCGGUCUUUGAAAUCCACUUUCUUCAGUAAUCAAUUCAACAAGCAAGUGUGAGAAGUUAUUCGAUGGUUGUAUCGAGUUGCGCUCGGUCUGUAGGAAUUGAUUGUAUGCAAAAUGACGUUCGAUAAGAGAGGUGGUGAUAUUUGAUUGAGAGAGGAUGGUUGAAUGUGAAGUGUGCGAAAUGAAAGAUUUGAAUGAUUGAAUUAAAUUGAAUUGACUGAAAGUAGGGGUUGAGGUUGAAUGAAAUGCACGAGAACGAGUUGAAUGAGAUUGAUCCAGGAAAGUAAUAAUGCAUGCAAGAUGAGCAAACGAUUUCCAAUCUUUUGGUUAUUUUCGAGGUCUGGAUUAUCAGGCAGAAAGAAAAGUGACCAGACAGGACAAGCUUGAGCGAGACAAGACAAC
Average % Reduction in Lesion Size ([1]; 30 ppm): 32.99%
Average % Reduction in Lesion Size ([1]; 50 ppm): 31.80%
% control [2, 5]: 46%
% control [2, 6]: 59%
